Usually Kd stands for the equilibrium constant for the complex coming apart. Low readings indicate a tighter complex, high ones a looser complex.

Among the data in article PMC7211993 are Kd values, retold here.

The target in this experiment is MDA-modified bovine serum albumin (bovine), P02769. Put plainly: MST; microscale thermophoresis with both binding partners in fluid phase. Conditions: remark: other sources report otherwise.
MDA-modified bovine serum albumin (bovine), P02769, sequence (P02769 25-607): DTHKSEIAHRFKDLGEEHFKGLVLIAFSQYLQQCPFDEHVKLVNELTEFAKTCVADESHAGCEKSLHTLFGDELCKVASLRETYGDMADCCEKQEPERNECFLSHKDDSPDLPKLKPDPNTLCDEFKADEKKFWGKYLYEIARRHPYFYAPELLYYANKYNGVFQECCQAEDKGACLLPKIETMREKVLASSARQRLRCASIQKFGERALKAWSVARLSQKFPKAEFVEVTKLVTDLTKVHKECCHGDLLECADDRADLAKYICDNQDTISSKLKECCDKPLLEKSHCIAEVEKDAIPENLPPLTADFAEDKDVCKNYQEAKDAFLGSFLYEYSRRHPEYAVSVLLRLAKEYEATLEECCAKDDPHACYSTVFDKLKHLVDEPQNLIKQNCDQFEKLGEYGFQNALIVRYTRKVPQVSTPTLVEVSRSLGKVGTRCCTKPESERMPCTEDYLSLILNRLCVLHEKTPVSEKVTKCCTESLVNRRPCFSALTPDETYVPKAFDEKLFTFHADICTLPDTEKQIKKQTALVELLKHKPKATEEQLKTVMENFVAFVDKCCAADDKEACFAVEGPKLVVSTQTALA

B1: complement factor H, P08603 19-1231 (natural protein)
chain: EDCNELPPRRNTEILTGSWSDQTYPEGTQAIYKCRPGYRSLGNVIMVCRKGEWVALNPLRKCQKRPCGHPGDTPFGTFTLTGGNVFEYGVKAVYTCNEGYQLLGEINYRECDTDGWTNDIPICEVVKCLPVTAPENGKIVSSAMEPDREYHFGQAVRFVCNSGYKIEGDEEMHCSDDGFWSKEKPKCVEISCKSPDVINGSPISQKIIYKENERFQYKCNMGYEYSERGDAVCTESGWRPLPSCEEKSCDNPYIPNGDYSPLRIKHRTGDEITYQCRNGFYPATRGNTAKCTSTGWIPAPRCTLKPCDYPDIKHGGLYHENMRRPYFPVAVGKYYSYYCDEHFETPSGSYWDHIHCTQDGWSPAVPCLRKCYFPYLENGYNQNYGRKFVQGKSIDVACHPGYALPKAQTTVTCMENGWSPTPRCIRVKTCSKSSIDIENGFISESQYTYALKEKAKYQCKLGYVTADGETSGSITCGKDGWSAQPTCIKSCDIPVFMNARTKNDFTWFKLNDTLDYECHDGYESNTGSTTGSIVCGYNGWSDLPICYERECELPKIDVHLVPDRKKDQYKVGEVLKFSCKPGFTIVGPNSVQCYHFGLSPDLPICKEQVQSCGPPPELLNGNVKEKTKEEYGHSEVVEYYCNPRFLMKGPNKIQCVDGEWTTLPVCIVEESTCGDIPELEHGWAQLSSPPYYYGDSVEFNCSESFTMIGHRSITCIHGVWTQLPQCVAIDKLKKCKSSNLIILEEHLKNKKEFDHNSNIRYRCRGKEGWIHTVCINGRWDPEVNCSMAQIQLCPPPPQIPNSHNMTTTLNYRDGEKVSVLCQENYLIQEGEEITCKDGRWQSIPLCVEKIPCSQPPQIEHGTINSSRSSQESYAHGTKLSYTCEGGFRISEENETTCYMGKWSSPPQCEGLPCKSPPEISHGVVAHMSDSYQYGEEVTYKCFEGFGIDGPAIAKCLGEKWSHPPSCIKTDCLSLPSFENAIPMGEKKDVYKAGEQVTYTCATYYKMDGASNVTCINSRWTGRPTCRDTSCVNPPTVQNAYIVSRQMSKYPSGERVRYQCRSPYEMFGDEEVMCLNGNWTEPPQCKDSTGKCGPPPPIDNGDITSFPLSVYAPASSVEYQCQNLYQLEGNKRITCRNGQWSEPPKCLHPCVISREIMENYNIALRWTAKQKLYSRTGESVEFVCKRGYRLSSRSHTLRTTCWDGKLEYPTCAKR
modifications: here or on the partner: malondialdehyde-acetaldehyde (MAA) / malondialdehyde (MDA) adducts; sites not stated
The molecule B1 registered a Kd of 2440 nM.
